# Data from IntAct's records for PubMed 15210731.
# B1: Myosin-1 (Saccharomyces cerevisiae), P08964 (parent)
# chain: MTGGQSCSSNMIVWIPDEKEVFVKGELMSTDINKNKFTGQEEQIGIVHPLDSTEVSNLVQVRISDVFPVNPSTFDKVENMSELTHLNEPSVLYNLEKRYDCDLIYTYSGLFLVAINPYHNLNLYSEDHINLYHNKHNRLSKSRLDENSHEKLPPHIFAIAEEAYENLLSEGKDQSILVTGESGAGKTENTKKILQYLASITSGSPSNIAPVSGSSIVESFEMKILQSNPILESFGNAQTVRNNNSSRFGKFIKIEFNEHGMINGAHIEWYLLEKSRIVHQNSKERNYHIFYQLLSGLDDSELKNLRLKSRNVKDYKILSNSNQDIIPGINDVENFKELLSALNIIGFSKDQIRWIFQVVAIILLIGNIEFVSDRAEQASFKNDVSAICSNLGVDEKDFQTAILRPRSKAGKEWVSQSKNSQQAKFILNALSRNLYERLFGYIVDMINKNLDHGSATLNYIGLLDIAGFEIFENNSFEQLCINYTNEKLQQFFNNHMFVLEQSEYLKENIQWDYIDYGKDLQLTIDLIESKGPPTGVLPLLDEEAVLPKSTDESFYSKLISTWDQNSSKFKRSRLKNGFILKHYAGDVEYTVEGWLSKNKDPLNDNLLSLLSSSQNDIISKLFQPEGEKSSSAGVEANISNQEVKKSARTSTFKTTSSRHREQQITLLNQLASTHPHFVRCIIPNNVKKVKTFNRRLILDQLRCNGVLEGIRLAREGYPNRIAFQEFFQRYRILYPENSTTTTFSSKLKASTKQNCEFLLTSLQLDTKVYKIGNTKLFFKAGVLADLEKQKDVKLNNIMIKLTATIRGYTVRKEITYHLQKLKKTRVIGNTFRLYNRLVKEDPWFNLFIRIKPLLTSSNDMTRTKKFNEQINKLKNDLQEMESKKKFLEEKNQKTVNELENTQDLLNQEKENLRKNESLLNRVKTSSETLQKQFDDLVSEKDEISREKLEVAQNLEEAHQKIQGLQETIREREATLEKLHSKNNELIKQISDLNCDISKEQSSQSLIKESKLKLENEIKRLKDVINSKEEEIKSFNDKLSSSEEDLDIKLVTLEKNCNIAMSRLQSLVTENSDLRSKNENFKKEKAALNNQLKNKESELLKMKEKIDNHKKELATFSKQRDDAVSEHGKITAELKETRIQLTEYKSNYQKIKEEYSNFQRETKEQEQKKRNSLVESLNDSKIKELEARLSQEISLNQYLNKRISGNSVETNISSTRRSTSYSDDPLDKEDIIKKYYDLQLAFTEITRNLENEIEEKKNLISRLRFTETRLASSSFEDQKIKAQMKKLKKLIQDMDPSIPLDSILNEPLDNCPDKESDINKLMLEVDYLKRQLDIETRAHYDAENAISALHSKFRKIQGESSLSSSDIYKLKFEASEERVKSLEDKLKTMPLRDRTNLPVGDIIKNRDSISKYEEEIRYYKLENYKLQEILNESNGKLSQLTLDLRQSKSKEALLSEQLDRLQKDLESTERQKELLSSTIKQQKQQFENCMDDLQGNELRLREHIHALKQAEEDVKNMASIIEKLKTQNKQKEKLIWEREMERNDSDMQLQETLLELKRVQDVKKILSDDLAHLKERLSAVEDRSQYTDEINRLKEELNCSLKAETNLKKEFATLKYKLETSTNDSEAKISDLLKQLDHYTKVVEMLNNEKDAISLAEKELYQKYEALNTECESLKGKIVSLTKIKQELESDLNQKTDALQISNAALSSSTQKNKEITEKIKYLEETLQLQMEQNSRNGELVKTLQASCNGYKDKFDDEKQKNIDLYEENQTLQKLNTDLQLQLKNLHERLSDTTEKNAWLSKIHELENMVSLETDLKYEEMKKNKSLERAVEELQTKNSQQTDVIELANKNRSEFEEATLKYEAQISDLEKYISQQELEMKKSIRDNSSYRDKVQEMAQEIEFWKSRYESTMIGSKNIDSNNAQSKIFS
# partner: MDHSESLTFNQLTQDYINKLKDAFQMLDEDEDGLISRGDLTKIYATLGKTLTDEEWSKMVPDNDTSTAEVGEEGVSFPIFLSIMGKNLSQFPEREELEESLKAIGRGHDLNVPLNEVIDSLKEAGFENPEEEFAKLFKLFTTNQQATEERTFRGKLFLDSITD
# B2: Myosin light chain 1 (Saccharomyces cerevisiae), P53141 (parent)
# chain: MSATRANKDIFTLFDKKGQGAIAKDSLGDYLRAIGYNPTNQLVQDIINADSSLRDASSLTLDQITGLIEVNEKELDATTKAKTEDFVKAFQVFDKESTGKVSVGDLRYMLTGLGEKLTDAEVDELLKGVEVDSNGEIDYKKFIEDVLRQ
# B3: Myosin light chain 1 (Saccharomyces cerevisiae), P53141 (parent)
# chain: B2 chain
# partner: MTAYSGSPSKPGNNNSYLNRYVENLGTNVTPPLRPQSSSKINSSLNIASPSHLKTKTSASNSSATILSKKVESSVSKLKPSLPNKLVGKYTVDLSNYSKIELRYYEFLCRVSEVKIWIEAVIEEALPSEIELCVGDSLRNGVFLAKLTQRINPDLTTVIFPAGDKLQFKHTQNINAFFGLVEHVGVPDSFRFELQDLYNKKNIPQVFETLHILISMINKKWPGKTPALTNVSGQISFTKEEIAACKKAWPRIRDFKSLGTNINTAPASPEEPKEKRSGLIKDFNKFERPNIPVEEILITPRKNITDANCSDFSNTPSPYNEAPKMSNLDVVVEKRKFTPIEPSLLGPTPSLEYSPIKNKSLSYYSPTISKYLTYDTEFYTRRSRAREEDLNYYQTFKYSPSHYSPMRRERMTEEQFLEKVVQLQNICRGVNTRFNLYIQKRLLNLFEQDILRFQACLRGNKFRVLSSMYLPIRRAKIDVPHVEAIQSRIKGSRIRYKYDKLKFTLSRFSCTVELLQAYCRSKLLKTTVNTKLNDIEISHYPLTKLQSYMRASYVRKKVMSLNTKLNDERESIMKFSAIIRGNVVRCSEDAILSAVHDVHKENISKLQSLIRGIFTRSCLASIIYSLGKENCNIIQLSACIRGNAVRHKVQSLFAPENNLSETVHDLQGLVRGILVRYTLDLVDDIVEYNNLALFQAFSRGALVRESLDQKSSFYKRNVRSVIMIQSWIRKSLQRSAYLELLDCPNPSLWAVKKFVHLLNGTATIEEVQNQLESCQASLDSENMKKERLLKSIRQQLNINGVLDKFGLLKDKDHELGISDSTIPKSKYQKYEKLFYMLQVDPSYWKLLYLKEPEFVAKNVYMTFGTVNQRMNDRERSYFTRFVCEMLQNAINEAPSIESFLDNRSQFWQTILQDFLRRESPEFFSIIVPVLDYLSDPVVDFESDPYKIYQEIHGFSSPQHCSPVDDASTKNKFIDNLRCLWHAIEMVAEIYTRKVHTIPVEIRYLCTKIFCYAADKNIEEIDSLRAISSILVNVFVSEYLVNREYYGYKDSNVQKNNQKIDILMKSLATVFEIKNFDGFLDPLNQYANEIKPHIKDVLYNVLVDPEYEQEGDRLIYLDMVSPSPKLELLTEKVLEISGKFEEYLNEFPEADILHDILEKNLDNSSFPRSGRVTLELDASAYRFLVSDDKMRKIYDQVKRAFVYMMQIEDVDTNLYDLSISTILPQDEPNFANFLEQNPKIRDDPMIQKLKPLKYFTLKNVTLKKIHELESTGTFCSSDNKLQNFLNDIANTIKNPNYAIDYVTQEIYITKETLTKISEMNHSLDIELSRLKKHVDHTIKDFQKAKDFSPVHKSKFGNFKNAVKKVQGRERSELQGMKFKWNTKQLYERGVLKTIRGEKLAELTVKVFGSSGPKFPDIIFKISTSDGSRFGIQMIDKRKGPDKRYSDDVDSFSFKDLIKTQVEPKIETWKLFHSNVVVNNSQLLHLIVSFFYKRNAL
# Variants of: B1
# Details: with mlc2_yeast MLC2, Q06580
row,Variant,effect of a mutation on the interaction
1,R806A,with no effect

# Variants of: B2
# Details: with myo2_yeast MYO2, P19524
# Sequence of myo2_yeast MYO2, P19524 (P19524 whole entry): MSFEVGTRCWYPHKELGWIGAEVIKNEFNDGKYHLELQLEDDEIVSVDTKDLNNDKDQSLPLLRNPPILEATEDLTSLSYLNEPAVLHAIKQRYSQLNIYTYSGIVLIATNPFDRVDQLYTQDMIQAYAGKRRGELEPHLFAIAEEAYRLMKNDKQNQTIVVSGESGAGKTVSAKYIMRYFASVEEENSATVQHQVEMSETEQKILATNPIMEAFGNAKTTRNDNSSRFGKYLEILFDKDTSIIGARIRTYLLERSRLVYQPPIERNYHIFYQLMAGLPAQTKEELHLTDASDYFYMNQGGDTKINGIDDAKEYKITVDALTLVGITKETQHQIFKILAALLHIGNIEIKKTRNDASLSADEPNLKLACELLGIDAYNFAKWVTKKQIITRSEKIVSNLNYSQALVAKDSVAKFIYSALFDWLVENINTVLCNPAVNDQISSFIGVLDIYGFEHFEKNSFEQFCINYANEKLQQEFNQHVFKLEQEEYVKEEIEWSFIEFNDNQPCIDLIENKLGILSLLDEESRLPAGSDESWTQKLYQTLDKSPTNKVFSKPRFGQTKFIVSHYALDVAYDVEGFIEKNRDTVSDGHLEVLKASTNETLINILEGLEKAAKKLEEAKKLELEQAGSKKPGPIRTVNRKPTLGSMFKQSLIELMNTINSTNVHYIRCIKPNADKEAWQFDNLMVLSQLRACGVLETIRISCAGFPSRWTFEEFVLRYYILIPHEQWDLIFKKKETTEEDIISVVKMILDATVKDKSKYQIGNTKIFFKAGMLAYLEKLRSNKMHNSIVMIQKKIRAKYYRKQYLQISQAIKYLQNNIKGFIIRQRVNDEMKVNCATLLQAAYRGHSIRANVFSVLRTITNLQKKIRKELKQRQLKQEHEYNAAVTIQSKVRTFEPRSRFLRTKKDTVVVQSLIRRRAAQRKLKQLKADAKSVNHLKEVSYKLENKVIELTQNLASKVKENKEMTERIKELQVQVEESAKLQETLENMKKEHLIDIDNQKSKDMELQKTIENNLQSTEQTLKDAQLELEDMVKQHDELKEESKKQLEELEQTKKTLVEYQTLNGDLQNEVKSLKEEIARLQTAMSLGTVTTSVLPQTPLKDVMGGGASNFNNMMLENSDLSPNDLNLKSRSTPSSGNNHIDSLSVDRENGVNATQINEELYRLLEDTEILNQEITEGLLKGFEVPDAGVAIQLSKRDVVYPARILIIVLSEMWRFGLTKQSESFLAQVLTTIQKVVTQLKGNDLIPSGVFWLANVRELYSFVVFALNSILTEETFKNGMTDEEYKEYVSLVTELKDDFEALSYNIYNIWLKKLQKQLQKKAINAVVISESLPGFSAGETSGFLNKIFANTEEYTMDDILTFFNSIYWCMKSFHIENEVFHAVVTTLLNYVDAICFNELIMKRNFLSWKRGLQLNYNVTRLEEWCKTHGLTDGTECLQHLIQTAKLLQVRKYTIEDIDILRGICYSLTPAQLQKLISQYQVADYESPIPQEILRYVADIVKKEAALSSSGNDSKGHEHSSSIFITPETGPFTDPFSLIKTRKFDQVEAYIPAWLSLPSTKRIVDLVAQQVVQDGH
row,Variant,effect of a mutation on the interaction
1,MSATRANKDIFTLFDKKGQGAIAKDSLGDYLRAIGYNPTNQLVQDIINADSSLRDASSLTLDQITGLIEVNEKELDATTKAKTEDFVKAFQVFDKESTGKVSVGDLRYMLTGLGEKLTDAEVDELLKGVEVDSNEEIDYKKFIEDVLRQ [G135E],with no effect
2,MSATRANKDIFTLFDKKGQGAIAKDSLGDYLRAIGYNPTNQLVQDIINADSSLRDASSLTLDQITGLIEVNEKELDATTKAKTEDFVKAFQVFDKESTGKVSVGDLRYMLTGLDEKLTDAEVDELLKGVEVDSNGEIDYKKFIEDVLRQ [G114D],disrupting interaction strength

# Variants of: B2
# Details: with myo1_yeast MYO1, P08964
row,Variant,effect of a mutation on the interaction
1,MSATRANKDIFTLFDKKGQGAIAKDSLGDYLRAIGYNPTNQLVQDIINADSSLRDASSLTLDQITGLIEVNEKELDATTKAKTEDFVKAFQVFDKESTGKVSVGDLRYMLTGLGEKLTDAEVDELLKGVEVDSNEEIDYKKFIEDVLRQ [G135E],decreasing interaction strength
2,MSATRANKDIFTLFDKKGQGAIAKDSLGDYLRAIGYNPTNQLVQDIINADSSLRDASSLTLDQITGLIEVNEKELDATTKAKTEDFVKAFQVFDKESTGKVSVGDLRYMLTGLDEKLTDAEVDELLKGVEVDSNGEIDYKKFIEDVLRQ [G114D],decreasing interaction strength

# Variants of: B3
# Details: with iqg1_yeast IQG1, Q12280
row,Variant,effect of a mutation on the interaction
1,MSATRANKDIFTLFDKKGQGAIAKDSLGDYLRAIGYNPTNQLVQDIINADSSLRDASSLTLDQITGLIEVNEKELDATTKAKTEDFVKAFQVFDKESTGKVSVGDLRYMLTGLDEKLTDAEVDELLKGVEVDSNGEIDYKKFIEDVLRQ [G114D],disrupting interaction strength
2,MSATRANKDIFTLFDKKGQGAIAKDSLGDYLRAIGYNPTNQLVQDIINADSSLRDASSLTLDQITGLIEVNEKELDATTKAKTEDFVKAFQVFDKESTGKVSVGDLRYMLTGLGEKLTDAEVDELLKGVEVDSNEEIDYKKFIEDVLRQ [G135E],with no effect
